{"source": "the nanobody polyreactivity screen of Harvey et al. (2022)"}
{"assay": "yeast display, Sf9 membrane polyspecificity reagent, FACS + sequencing; frameworks hold sequencing errors", "method_in_brief": "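Polyreactivity labels are assigned by the sorting gate from which each nanobody was recovered. The gates were low and high (top ~1%), set on anti-HA fluorescence for expression and streptavidin fluorescence for reagent binding. Before sorting, galactose-induced (36–48 hours) yeast display cells were stained for 1 hour at 4 °C with 10% biotinylated, detergent-solubilized Sf9 membrane reagent.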"}
{"sequence": "QVQLVESGGGLVHAGGSLRLSCAASGFTFGDNAMGSYRQAPGKERELVADIDSDGSTYYADSVKGRFTISRDNAKNTVYLQMNSLKPEDTAVYYCAKRQAFKQAPYEYWGQCTQVTVSS", "polyreactivity (PSR sort gate)": "low polyreactivity"}
{"sequence": "QVQLVESGGGLVHAGGSLRLSCAASGFTFIRYAMGWYRQAPGKERELVAAIRGTGTSTYYADSVKGRFTISRDNAKNTVYFQMNSLKPEDTAVYYCAAVHWWSSSLGMYYWGQGSQVTVSS", "polyreactivity (PSR sort gate)": "low polyreactivity"}
{"sequence": "QVQLVESGGGLVHAGGSLRLSCAASGFTFLRYVMGWYRQTPGKERELVAAISYSGGRTYYADSVKGRFTISRDNAKKTVYLQMNSLKPEDTAVYYCAAESFYPAGFRGYWGQGTQVTVSS", "polyreactivity (PSR sort gate)": "high polyreactivity"}
{"sequence": "QVQLVESGGGLVHAGGSLRLSCAASGFTFSYYAMVWYREAPGKEREFVAAISRSGGSTYYADSVKGRFTISRDNAKNTVYLQMNSLYPVDTAVYYCATELSYRHGYWGQGTQVSVSS", "polyreactivity (PSR sort gate)": "high polyreactivity"}
{"sequence": "QVQLVESGGGLVHAGGSLRLSCAASGFTFTFYAMGWYRQAPGKERELVATISSNGGSTYYADSVKGRFTISRDNAKNTVYLQMNSLKPEDTAVYYCAAITSYYGYYYWGQGTQVTVSS", "polyreactivity (PSR sort gate)": "high polyreactivity"}
{"sequence": "QVQLVESGGGLVHAGGSLRLSCAASGGIFPHNVMGWYRQAPGKEREMVAAITWSGGRTYYADSVKGRFTNSRDNAKNTVYFQLNSLKPEDTAVYYCAADPFYLTKSGGWGDYWGQGTQVTVSS", "polyreactivity (PSR sort gate)": "low polyreactivity"}
{"sequence": "QVQLVESGGGLVHAGGSLRLSCAASGGTFVYNAMGWYRQAPGKERELVAVISKRGGSTYYADSVKGRFTISRDNAKNTVYLEMISLKPEDTAVYYCAVSYRSFRYYWERYYSWGQGTQVTVSS", "polyreactivity (PSR sort gate)": "high polyreactivity"}
{"sequence": "QVQLVESGGGLVHAGGSLRLSCAASGGTLYRYAMGWYRQAPGKERELVAGISSSGGRTYYADSVKGRFTISRDNAKNTVYLQMNSLKPEDTAVYYCAKYWVSSYDYWGQGTQVTVSS", "polyreactivity (PSR sort gate)": "high polyreactivity"}
{"sequence": "QVQLVESGGGLVHAGGSLRLSCAASGIIFRSYAMGWYRQAPGKERELVAGISLSGGSTYYADSVKGLFTISRDNSKNTVYLQMKSLKPEDTAVYYCATRNHYFRALRYGYWGQGTQVTVSS", "polyreactivity (PSR sort gate)": "high polyreactivity"}
{"sequence": "QVQLVESGGGLVHAGGSLRLSCAASGIIFSWYAMGWYRQAPGKERELVAAITSDGNTYYADSVKGRFTISRDNAKNTVYLQMNSLKPEDTAVYYCIARTYVRRPLGYWGQGWQVTVSS", "polyreactivity (PSR sort gate)": "high polyreactivity"}
{"sequence": "QVQLVESGGGLVHAGGSLRLSCAASGITFERYAMGWYRQAPGKERELVAAITSSGGSTYYADSVKGRFTISRDNAKNTVYLQMNSLKPEDTAVYYCAARTAYTPRHDYWGQGTEVTVSS", "polyreactivity (PSR sort gate)": "high polyreactivity"}
{"sequence": "QVQLVESGGGLVHAGGSLRLSCAASGITFYDYDMGWYRQAPGKERELVATITSGGDTNYADSVKGRITISRDNAKNTVYLQMNSLKPEDTAVYYCAAGSFFRDSYARIYRWFYYWGQGTQVTVSS", "polyreactivity (PSR sort gate)": "low polyreactivity"}
{"sequence": "QVQLVESGGGLVHAGGSLRLSCAASGRIFAPYAMGWYRQAPGKERELVAAITSRGGSTYYADSVKGRFTISRDTAKNTVYLQMNSLKPEDTAVYYCNADYYGRPYYYWGQGTQVTVSS", "polyreactivity (PSR sort gate)": "high polyreactivity"}
{"sequence": "QVQLVESGGGLVHAGGSLRLSCAASGRIFIANTMGWYRQATGKERELVAAITQRGDSTYYADSVKGRCTISRDNAKNTVDLQMNSLKPEDTAVYYCAARYYLSSYVRYNYWGQGTQVTVSS", "polyreactivity (PSR sort gate)": "high polyreactivity"}
{"sequence": "QVQLVESGGGLVHAGGSLRLSCAASGRIFQHYAMGWYRKAPGKERELVAAISWRGGSTYYADSVKGRFTISRDNAKNTVYLQMNSLIPEDTAVYYCAAGYPGRNPGFDYWGQGNQVTVSS", "polyreactivity (PSR sort gate)": "high polyreactivity"}
{"sequence": "QVQLVESGGGLVHAGGSLRLSCAASGRIFSPYARGWYRQAPGKERELDAAMSGSRGRTYYADSVKGRFTISRDNAKNTEYLLMNRLKPEDTADYYCAAYRAITRANYLDYWGQGTQVTVSS", "polyreactivity (PSR sort gate)": "high polyreactivity"}
{"sequence": "QVQLVESGGGLVHAGGSLRLSCAASGRITTYYTMGRYRHAPGKERELVAAISWSGTSTYYADSVKGRFTISRDNAKNTVYLQMNSLKPEATAVYYCNAGWRYPLDSVTDDYWGQGTQVTVSS", "polyreactivity (PSR sort gate)": "high polyreactivity"}
{"sequence": "QVQLVESGGGLVHAGGSLRLSCAASGRTFAGNVMGWYIQAPGKEREFVAAISLSGGNTYYADSVKGRFTISRDNAKNTVYLQMNSLKPEDTAVYYCAADYEYSGYGYWGQGTQVTVSS", "polyreactivity (PSR sort gate)": "high polyreactivity"}
{"sequence": "QVQLVESGGGLVHAGGSLRLSCAASGRTFHGYAMGWYIQAPGKERELVAAITSSGARTYYADSVKGRFTISRDNAKNTVYLQMNSLKPEDTAVYYCAVNWLRGMDWGQGTQVTVSS", "polyreactivity (PSR sort gate)": "high polyreactivity"}
{"sequence": "QVQLVESGGGLVHAGGSLRLSCAASGRTFLLYAMGWYRQAPGKERELVARITGRGGRTYYADSVKGRFTISRDNAKNTVYLQMNSLKPEDTAVYYCNAKGYQGQWERYDYWGQGTQVTVSS", "polyreactivity (PSR sort gate)": "high polyreactivity"}
{"sequence": "QVQLVESGGGLVHAGGSLRLSCAASGRTFQWNRMVWYRQAPGKERELVATIRRGGSTNYADSVKGRFTISRDNAKNTVYLQMNSLKPEDTAVYYCAADRRYPGGWGFEYNYWGQGTQVTVSS", "polyreactivity (PSR sort gate)": "low polyreactivity"}
{"sequence": "QVQLVESGGGLVHAGGSLRLSCAASGRTFWSYSMGWYRQAPGKEREFVAAISRRGGITYYADSVKGRFTISRDNAKTTVYLQMNSLKPEDTAVFYCAKGALSYYGGQVKYDYWGQGTQVTVSS", "polyreactivity (PSR sort gate)": "high polyreactivity"}
{"sequence": "QVQLVESGGGLVHAGGSLRLSCAASGRTFWYYAMGWYRQAPGKERELVAAITRGGRTNYADSVKGRFTISRDNAKNTVYLQMNSLKPEDTAVYYCAADYRYPAHSYGYWGQGTQVTVSS", "polyreactivity (PSR sort gate)": "high polyreactivity"}
{"sequence": "QVQLVESGGGLVHAGGSLRLSCAASGRTFYAYAMGWYRQAPGKERELVAAISWRGGDTYYADSVKGRFTISRDNAKNTVYLQMNSVKPEVTAVYFCCADVYRYSVYLIRNPMDYWGQGTQVTVSS", "polyreactivity (PSR sort gate)": "low polyreactivity"}
{"sequence": "QVQLVESGGGLVHAGGSLRLSCAASGSIFDYYALGWYRQAPGKERDLVASINSSVTGTYYADTVKGRFTISRDNAKNSVYLQMNSLKPEDTAVYYCAVKVYGRSGGYEYWGQGTQVTVSS", "polyreactivity (PSR sort gate)": "low polyreactivity"}
{"sequence": "QVQLVESGGGLVHAGGSLRLSCAASGSIFVVYTMGWYRQAPGQERELVAAITQNGGSSTYYADSVKGRFTISRDNAKNTVYLQMNSLKPEDTAVYYCNKDILSPVVRIFKYGYDMDYWGQGTQVTVSS", "polyreactivity (PSR sort gate)": "low polyreactivity"}
{"sequence": "QVQLVESGGGLVHAGGSLRLSCAASGSIFYHNPMGWYRQAPGKERELVAAISGRGGSTYYADSVKGRFTISRDNAKHTVYLQMNSLKPEDSAVYYCAADARYQNGGLYYWGQGTHVTVSS", "polyreactivity (PSR sort gate)": "high polyreactivity"}
{"sequence": "QVQLVESGGGLVHAGGSLRLSCAASGSIIDRNAMGWYRQAPGKERELVASITRGGSTNYADSVKGRFTISRDNEKNTVYLQMNSLKPEDTAVYYCADDRVYLGMFRYEYWGQGTQVTVSS", "polyreactivity (PSR sort gate)": "high polyreactivity"}
{"sequence": "QVQLVESGGGLVHAGGSLRLSCAASGSIYGANDMGWYRKATGKERELVAAITRSGTRTYYADSVKGLFTISRDNAKNTVYLQMNSLKPEDTAVYYCAAVLRLSTLTTDFGYWGQGTQVTVSS", "polyreactivity (PSR sort gate)": "high polyreactivity"}
{"sequence": "QVQLVESGGGLVHAGGSLRLSCAASGSNFGYNAMGWYIQAPGKERELVAAITSIGGNTYADSVKGRFTISRDNAKYTVYLQMNSLKPEDTAVYYCAAERNTDPIQVVYEFDYWGQGSQVTVSS", "polyreactivity (PSR sort gate)": "low polyreactivity"}
{"sequence": "QVQLVESGGGLVHAGGSLRLSCAASGSNFRYNAMGWYRQAPGKEREFYADSVKGRFTISRDNAKKTVYLQMNSLKPEDTAVYYCNATWYLWYWHDMDYWGQGTQGTVSS", "polyreactivity (PSR sort gate)": "low polyreactivity"}
{"sequence": "QVQLVESGGGLVHAGGSLRLSCAASGSNSNYYGMGWYRQAPGKERELVAAITWGGGRTNYADSVKGRFTISRDNAKNTVYLQMNSLKPEDTAVYYCAKVSVTHRYGAGGDYWGQGTQVTVSS", "polyreactivity (PSR sort gate)": "low polyreactivity"}
